According to paper doi:10.1101/2025.08.22.671816 (bioRxiv, 2025):
Where no end group is shown, it is not given here.

Target: T1, mCerulean-tagged GIPC (human, UniProt O14908 1-333)
T1 sequence (looked up): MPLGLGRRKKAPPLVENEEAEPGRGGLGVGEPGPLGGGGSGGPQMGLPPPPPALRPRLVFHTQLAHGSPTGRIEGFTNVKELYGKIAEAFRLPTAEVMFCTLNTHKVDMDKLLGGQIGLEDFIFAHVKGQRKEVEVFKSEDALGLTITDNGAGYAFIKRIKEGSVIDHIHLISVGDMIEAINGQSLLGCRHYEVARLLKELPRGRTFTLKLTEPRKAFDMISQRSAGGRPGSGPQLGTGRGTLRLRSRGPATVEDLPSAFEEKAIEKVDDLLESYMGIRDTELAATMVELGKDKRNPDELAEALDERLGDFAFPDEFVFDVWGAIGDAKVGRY
Assay: FRET or BRET

B1: mCitrine-tagged GIPR C-tail, wild-type (domain or fragment, human, UniProt P48546 422-466, looked up)
chain: QLPERAFRALPSGSGPGEVPTSRGLSSGTLPGPGNEASRELESYC
modifications: also: mCitrine-tagged
  binding result: binds
